Results taken from US20200347133A1 (INHIBRX, published 2020).
Numbering of substitutions follows the chain as printed.

B1: hzG11v2 sdAb (hzG11v2 VHH domain fused to human IgG1 xELL Fc region) (Fc fusion)
chain: EVQLVESGGGEVQPGGSLRLSCAASGSTLNIDHIGWYRQAPGKERELVGVISSGAGPNYAESVKGRFTISRDNAKNTVYLQMSSLRAEDTAVYYCNAWIDYGSGLPQNYWGQGTLVTVDKTHTCPPCPAPGGPSVFLFPPKPKDTLMISRTPEVTCVVVDVSHEDPEVKFNWYVDGVEVHNAKTKPREEQYNSTYRVVSVLTVLHQDWLNGKEYKCKVSNKALPAPIEKTISKAKGQPREPQVYTLPPSRDELTKNQVSLTCLVKGFYPSDIAVEWESNGQPENNYKTTPPVLDSDGSFFLYSKLTVDKSRWQQGNVFSCSVMHEALHNHYTQKSLSLSPGK
notes: VHH-Fc; no linker stated; also called hzG11v2-IgG1
B2: hzB07v7 sdAb (hzB07v7 VHH domain fused to human IgG1 xELL Fc region) (Fc fusion)
chain: EVQLVESGGGEVQPGGSLRLSCAASGRTISDYVVGWFRQAPGKERAFVAAISRYGTTYYAASVQGRFTISRDNPRNTVYLQVDSLRAEDTAVYYCAALQNDVRNNHSPTSYDYWGQGTLVTVDKTHTCPPCPAPGGPSVFLFPPKPKDTLMISRTPEVTCVVVDVSHEDPEVKFNWYVDGVEVHNAKTKPREEQYNSTYRVVSVLTVLHQDWLNGKEYKCKVSNKALPAPIEKTISKAKGQPREPQVYTLPPSRDELTKNQVSLTCLVKGFYPSDIAVEWESNGQPENNYKTTPPVLDSDGSFFLYSKLTVDKSRWQQGNVFSCSVMHEALHNHYTQKSLSLSPGK
notes: VHH-Fc; no linker stated; also called hzB07v7-IgG1
B3: 1E4 sdAb (1E4 VHH domain fused to human IgG1 xELL Fc region) (Fc fusion)
chain: QVQLQQSGGGSVQAGGSLRLSCVASGSGFSASLMSWHRQAPGSQRDLVASITRDGRANYVDSVKDRFTISRDNAKNTAYLQMDSLKPEDTAAYYCHAYSFDYPIRSYWGQGTQVTVDKTHTCPPCPAPGGPSVFLFPPKPKDTLMISRTPEVTCVVVDVSHEDPEVKFNWYVDGVEVHNAKTKPREEQYNSTYRVVSVLTVLHQDWLNGKEYKCKVSNKALPAPIEKTISKAKGQPREPQVYTLPPSRDELTKNQVSLTCLVKGFYPSDIAVEWESNGQPENNYKTTPPVLDSDGSFFLYSKLTVDKSRWQQGNVFSCSVMHEALHNHYTQKSLSLSPGK
notes: VHH-Fc; no linker between VHH and Fc is stated; also called 1E4-IgG1
B4: hz1H9v2 sdAb (hz1H9v2 VHH domain fused to human IgG1 xELL Fc region) (Fc fusion)
chain: EVQLVESGGGEVQPGGSLRLSCAASGSIFSISIMGWYRQAPGKERELVASTTSSGTTNYVESVKGRFTISRDNAKNTLYLQMSSLRAEDTAVYYCHAYIATTTDRGYRGYWGQGTLVTVDKTHTCPPCPAPGGPSVFLFPPKPKDTLMISRTPEVTCVVVDVSHEDPEVKFNWYVDGVEVHNAKTKPREEQYNSTYRVVSVLTVLHQDWLNGKEYKCKVSNKALPAPIEKTISKAKGQPREPQVYTLPPSRDELTKNQVSLTCLVKGFYPSDIAVEWESNGQPENNYKTTPPVLDSDGSFFLYSKLTVDKSRWQQGNVFSCSVMHEALHNHYTQKSLSLSPGK
notes: VHH-Fc; no linker stated; also called hz1H9v2-IgG1
B5: hz1G3v3 sdAb (hz1G3v3 VHH domain fused to human IgG1 xELL Fc region) (Fc fusion)
chain: EVQLVESGGGEVQPGGSLRLSCAASGFTFSSYAMGWFRQAPGKGREWVAAITTSGDTTYYAESVKGRFTISRDNAKNTVYLQMSSLRAEDTAVYYCAAHRGGGVIDYWGQGTLVTVDKTHTCPPCPAPGGPSVFLFPPKPKDTLMISRTPEVTCVVVDVSHEDPEVKFNWYVDGVEVHNAKTKPREEQYNSTYRVVSVLTVLHQDWLNGKEYKCKVSNKALPAPIEKTISKAKGQPREPQVYTLPPSRDELTKNQVSLTCLVKGFYPSDIAVEWESNGQPENNYKTTPPVLDSDGSFFLYSKLTVDKSRWQQGNVFSCSVMHEALHNHYTQKSLSLSPGK
notes: VHH-Fc; no linker stated; also called hz1G3v3-IgG1
B6: hz1E4v2 sdAb (hz1E4v2 VHH domain fused to human IgG1 xELL Fc region) (Fc fusion)
chain: EVQLVESGGGEVQPGGSLRLSCAASGSGFSASLMSWHRQAPGKQRDLVASITRDGRANYVESVKGRFTISRDNAKNTLYLQMSSLRAEDTAVYYCHAYSFDYPIRSYWGQGTLVTVDKTHTCPPCPAPGGPSVFLFPPKPKDTLMISRTPEVTCVVVDVSHEDPEVKFNWYVDGVEVHNAKTKPREEQYNSTYRVVSVLTVLHQDWLNGKEYKCKVSNKALPAPIEKTISKAKGQPREPQVYTLPPSRDELTKNQVSLTCLVKGFYPSDIAVEWESNGQPENNYKTTPPVLDSDGSFFLYSKLTVDKSRWQQGNVFSCSVMHEALHNHYTQKSLSLSPGK
notes: VHH-Fc; no linker stated; also called hz1E4v2-IgG1
B7: 1H9 sdAb (1H9 VHH domain fused to human IgG1 xELL Fc region) (Fc fusion)
chain: EVQLQQSGGAVVQPGGSLRLSCAASGSIFSISIMGWYRQAPGKERELVASTTSSGTTNYVDSVKGRFTASRDNAKNTVYLQMNSLKPDDTAIYHCHAYIATTTDRGYRGYWGQGTQVTVDKTHTCPPCPAPGGPSVFLFPPKPKDTLMISRTPEVTCVVVDVSHEDPEVKFNWYVDGVEVHNAKTKPREEQYNSTYRVVSVLTVLHQDWLNGKEYKCKVSNKALPAPIEKTISKAKGQPREPQVYTLPPSRDELTKNQVSLTCLVKGFYPSDIAVEWESNGQPENNYKTTPPVLDSDGSFFLYSKLTVDKSRWQQGNVFSCSVMHEALHNHYTQKSLSLSPGK
notes: VHH-Fc; no linker stated; also called 1H9-IgG1
B8: 1G3 sdAb (1G3 VHH domain fused to human IgG1 xELL Fc region) (Fc fusion)
chain: B5 chain with V5Q, E6Q, A23E, L113Q
notes: VHH-Fc; no linker stated
B9: G11 sdAb (G11 VHH domain fused to human IgG1 xELL Fc region) (Fc fusion)
chain: B1 chain with E6Q, E11S, P14V, E61D, S83N, R86K, A87P, Y94N, L115Q
notes: VHH-Fc; no linker stated
B10: F02 sdAb (F02 VHH domain fused to human IgG1 xELL Fc region) (Fc fusion)
chain: QVQLVQSGGGLVQAGGSLRLSCAASGSISSYNVVGWYRQLSGNERGGRTMVAQINAYGDTNYANAVVGRFTISRDDAKNTVYLHMSNLKPEDTGVYYCNGQRMLENYTYRDQSWGQGTQVTVDKTHTCPPCPAPGGPSVFLFPPKPKDTLMISRTPEVTCVVVDVSHEDPEVKFNWYVDGVEVHNAKTKPREEQYNSTYRVVSVLTVLHQDWLNGKEYKCKVSNKALPAPIEKTISKAKGQPREPQVYTLPPSRDELTKNQVSLTCLVKGFYPSDIAVEWESNGQPENNYKTTPPVLDSDGSFFLYSKLTVDKSRWQQGNVFSCSVMHEALHNHYTQKSLSLSPGK
notes: VHH-Fc; no linker stated; also called F02-IgG1
B11: 1C7 sdAb (1C7 VHH domain fused to human IgG1 xELL Fc region) (Fc fusion)
chain: QVQLQQSGGGLVQAGGSLRLSCAASGRTFSGYIMGWFRQVPGKERELVARISGNNLSTEYGGSVKGRFTISRDSAKETMYLQMNSLKPEDTAIYYCAAEYDYSSGDFVYWGQGTQVTVDKTHTCPPCPAPGGPSVFLFPPKPKDTLMISRTPEVTCVVVDVSHEDPEVKFNWYVDGVEVHNAKTKPREEQYNSTYRVVSVLTVLHQDWLNGKEYKCKVSNKALPAPIEKTISKAKGQPREPQVYTLPPSRDELTKNQVSLTCLVKGFYPSDIAVEWESNGQPENNYKTTPPVLDSDGSFFLYSKLTVDKSRWQQGNVFSCSVMHEALHNHYTQKSLSLSPGK
notes: VHH-Fc; no linker stated; also called 1C7-IgG1

target: T1, CD33M, full length human CD33 protein expressed on transfected cells (human, UniProt P20138 18-303); assay: flow cytometry on cells labelled CD33M-HEK-293, anti-human IgG Alexa Fluor 647 secondary, median fluorescence
T1 construct: also called full length CD33
T1 sequence (P20138 18-303): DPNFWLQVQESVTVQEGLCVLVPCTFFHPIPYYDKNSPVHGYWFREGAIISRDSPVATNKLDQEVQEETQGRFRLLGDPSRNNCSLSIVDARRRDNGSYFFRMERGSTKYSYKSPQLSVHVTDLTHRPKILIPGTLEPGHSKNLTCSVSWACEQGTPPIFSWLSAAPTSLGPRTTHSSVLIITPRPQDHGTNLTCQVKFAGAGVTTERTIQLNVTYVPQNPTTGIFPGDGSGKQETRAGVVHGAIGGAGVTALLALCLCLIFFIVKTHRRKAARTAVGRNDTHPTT
Procedure: Binding of sdAbs to human CD33 was assessed by flow cytometry. […] […] The sequence encoded by the CD33M plasmid includes the leader sequence, full extracellular domain, transmembrane domain, and cytoplasmic domain. The sequence encoded by the CD33m plasmid includes the leader sequence, the membrane proximal IgC2 domain, and the transmembrane domain. Untransfected HEK 293 cells were used as CD33-negative cells. Each cell type was plated at 30,000 cells/well in FACS buffer (PBS 1% BSA, 0.1% NaN₃ pH 7.4) on a 96-well round-bottom plate. The sdAbs were diluted in FACS buffer in a 3-fold, 11 point serial dilution. The sdAb dilutions were added to the plated cells, and assay plates were incubated for 30 minutes at 4° C. After washing twice in 150 μL of FACS buffer, cells in each well were resuspended in 100 μL of 1:2000 Alexa Fluor 647-conjugated Anti-Human IgG secondary diluted in FACS buffer and incubated at 4° C. for 30 minutes. The cells were washed twice more, then bound antibody was detected by flow cytometry.
(§1) Flow cytometric analysis was performed on an Intellicyte iQue Plus and fluorescence was plotted as median fluorescence intensity. The apparent affinity (Kd, nM) was determined using one site binding non-linear regression in PRISM graph software.

Row | EC50 (read off the curve) | Binder
1 | ~2 nM | B1
2 | ~0.7 nM | B2

target: T1, CD33M, full length human CD33 protein …; assay: flow cytometry on MOLM-13 cells transfected with CD33 (CD33M per Table 3), anti-human IgG Alexa Fluor 647 secondary, median fluorescence
Procedure: (§2) Binding of sdAbs to human CD33 was assessed by flow cytometry. […] MOLM-13 cells were transiently transfected with a plasmid encoding a sequence comprising “CD33M” (SEQ ID NO: 112) or a plasmid encoding a sequence comprising a truncated version, “CD33m” (SEQ ID NO: 113). The sequence encoded by the CD33M plasmid includes the leader sequence, full extracellular domain, transmembrane domain, and cytoplasmic domain. The sequence encoded by the CD33m plasmid includes the leader sequence, the membrane proximal IgC2 domain, and the transmembrane domain. Untransfected HEK 293 cells were used as CD33-negative cells. Each cell type was plated at 30,000 cells/well in FACS buffer (PBS 1% BSA, 0.1% NaN₃ pH 7.4) on a 96-well round-bottom plate. The sdAbs were diluted in FACS buffer in a 3-fold, 11 point serial dilution. The sdAb dilutions were added to the plated cells, and assay plates were incubated for 30 minutes at 4° C. After washing twice in 150 μL of FACS buffer, cells in each well were resuspended in 100 μL of 1:2000 Alexa Fluor 647-conjugated Anti-Human IgG secondary diluted in FACS buffer and incubated at 4° C. for 30 minutes. The cells were washed twice more, then bound antibody was detected by flow cytometry.
as §1

Row | EC50 (read off the curve) | Binder
3 | ~0.07 nM | B3
4 | ~0.3 nM | B4
5 | ~2 nM | B5
6 | ~0.3 nM | B6
7 | ~0.2 nM | B7

target: T1, CD33M, full length human CD33 protein …; assay: flow cytometry on cells transfected with CD33M; apparent Kd, one-site fit
Procedure: as §2, §1

Row | Kd | Binder
8 | 0.05 nM | B3
9 | 0.27 nM | B4
10 | 0.49 nM | B8
11 | 1.6 nM | B5
12 | 0.32 nM | B6
13 | 1.1 nM | B9
14 | 2.67 nM | B1
15 | 0.75 nM | B2
16 | 0.14 nM | B7
17 | 15.2 nM | B10
18 | 6.64 nM | B11

target: T2, CD33m, truncated human CD33 protein expressed on transfected cells (human, UniProt P20138 140-259); assay: flow cytometry on cells transfected with truncated CD33m; apparent Kd, one-site fit
T2 construct: leader and transmembrane domain are not in it; also called truncated CD33
T2 sequence (P20138 140-259 limits assumed): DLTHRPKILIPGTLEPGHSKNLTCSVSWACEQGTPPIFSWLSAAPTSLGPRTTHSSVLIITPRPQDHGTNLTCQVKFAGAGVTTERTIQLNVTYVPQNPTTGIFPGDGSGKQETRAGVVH
Procedure: as §2, §1

Row | Kd | Binder
19 | 5.15 nM | B10
